2 molecules from paper PMC9864249 can be followed below.

Assay [1] deals with GST-ZZUD (ZU5-ZU5-UPA-DD spectrin-binding domain of erythrocyte ankyrin, wild type) (human) (UniProt P16157). The assay is described as follows: pull-down; sedimentation assay: GST-ZZUD or GST-ZZUDL1340P adsorbed on Glutathione Sepharose 4B; His(6)GFP–AnkBD 0–2 µM; 50 mM Tris–HCl, 150 mM NaCl, 2 mM DTT, pH 7.5; 30 min, room temperature; eluted with 75 mM GSH, bound GFP read by fluorescence; bare resin subtracted; one site-specific binding fit.

For assay [2], the target named is His(6)GFP–AnkBD (ankyrin-binding domain of erythrocyte β-spectrin, repeats 14–15) (human) (UniProt P11277). As to the kind of experiment: BLI; Octet K2; His(6)GFP–AnkBD loaded on Ni2+-NTA biosensor tips; GST-ZZUD or GST-ZZUDL1340P 0–2.5 µM in solution; 30 °C; 50 mM Tris–HCl, 150 mM NaCl, 2 mM DTT, pH 7.5; association 300 s, dissociation 300 s; curves compared by amplitude. (BLI is a label-free optical method that tracks binding on a fibre tip over time.)
Sequence of UniProt P11277 (P11277 whole entry, the tested form may be a part): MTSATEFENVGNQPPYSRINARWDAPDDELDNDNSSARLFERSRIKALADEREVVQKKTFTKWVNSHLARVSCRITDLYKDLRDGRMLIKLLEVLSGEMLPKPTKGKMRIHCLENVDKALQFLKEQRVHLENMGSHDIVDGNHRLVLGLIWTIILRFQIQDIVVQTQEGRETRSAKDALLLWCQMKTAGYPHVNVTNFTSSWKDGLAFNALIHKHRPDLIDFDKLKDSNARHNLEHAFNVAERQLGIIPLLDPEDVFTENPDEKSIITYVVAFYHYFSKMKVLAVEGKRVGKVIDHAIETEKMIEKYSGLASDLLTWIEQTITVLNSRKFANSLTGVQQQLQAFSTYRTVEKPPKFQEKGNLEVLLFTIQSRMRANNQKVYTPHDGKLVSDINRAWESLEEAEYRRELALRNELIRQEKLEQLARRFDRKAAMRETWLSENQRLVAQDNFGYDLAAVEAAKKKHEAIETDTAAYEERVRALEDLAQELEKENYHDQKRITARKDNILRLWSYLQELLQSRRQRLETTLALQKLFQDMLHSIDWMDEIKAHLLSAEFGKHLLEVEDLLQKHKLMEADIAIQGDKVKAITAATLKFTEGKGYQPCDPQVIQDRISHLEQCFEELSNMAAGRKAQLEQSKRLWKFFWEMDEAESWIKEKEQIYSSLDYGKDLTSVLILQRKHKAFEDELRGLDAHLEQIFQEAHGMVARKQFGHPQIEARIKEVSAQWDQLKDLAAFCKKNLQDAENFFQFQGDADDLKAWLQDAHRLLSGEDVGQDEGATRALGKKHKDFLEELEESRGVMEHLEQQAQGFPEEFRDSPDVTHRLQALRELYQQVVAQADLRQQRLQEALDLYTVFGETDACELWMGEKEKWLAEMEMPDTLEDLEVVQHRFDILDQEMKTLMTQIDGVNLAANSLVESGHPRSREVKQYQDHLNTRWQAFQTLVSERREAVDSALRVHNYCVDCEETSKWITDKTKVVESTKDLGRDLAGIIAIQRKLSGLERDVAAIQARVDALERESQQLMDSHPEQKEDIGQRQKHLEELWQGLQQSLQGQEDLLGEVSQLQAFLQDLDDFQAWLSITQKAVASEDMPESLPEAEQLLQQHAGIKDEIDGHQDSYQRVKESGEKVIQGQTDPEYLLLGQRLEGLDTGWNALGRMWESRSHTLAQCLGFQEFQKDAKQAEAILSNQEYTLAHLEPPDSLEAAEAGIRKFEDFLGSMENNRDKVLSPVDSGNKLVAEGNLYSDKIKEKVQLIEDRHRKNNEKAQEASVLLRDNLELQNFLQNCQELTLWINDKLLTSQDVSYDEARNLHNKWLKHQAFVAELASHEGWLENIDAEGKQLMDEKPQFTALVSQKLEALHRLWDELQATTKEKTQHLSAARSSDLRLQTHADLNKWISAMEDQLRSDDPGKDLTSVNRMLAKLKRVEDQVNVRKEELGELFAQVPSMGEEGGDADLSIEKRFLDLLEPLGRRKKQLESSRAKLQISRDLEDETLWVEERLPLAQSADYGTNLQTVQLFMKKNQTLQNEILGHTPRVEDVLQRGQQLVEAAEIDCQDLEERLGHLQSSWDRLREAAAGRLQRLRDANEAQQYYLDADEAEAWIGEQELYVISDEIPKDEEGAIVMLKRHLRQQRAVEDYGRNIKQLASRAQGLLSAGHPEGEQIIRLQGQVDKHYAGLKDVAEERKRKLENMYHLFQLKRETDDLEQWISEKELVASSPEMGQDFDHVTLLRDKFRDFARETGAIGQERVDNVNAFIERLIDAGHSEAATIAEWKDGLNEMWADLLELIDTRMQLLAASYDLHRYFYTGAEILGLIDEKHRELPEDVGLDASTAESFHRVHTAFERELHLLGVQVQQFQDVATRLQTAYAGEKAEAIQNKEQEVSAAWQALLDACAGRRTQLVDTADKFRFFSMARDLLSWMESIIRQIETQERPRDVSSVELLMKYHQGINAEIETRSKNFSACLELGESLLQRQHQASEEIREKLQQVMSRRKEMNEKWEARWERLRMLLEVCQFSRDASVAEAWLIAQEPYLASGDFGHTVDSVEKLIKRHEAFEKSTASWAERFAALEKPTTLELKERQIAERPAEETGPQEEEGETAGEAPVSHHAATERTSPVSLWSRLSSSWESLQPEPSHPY

Turning to “His(6)GFP–AnkBD (ankyrin-binding domain of erythrocyte β-spectrin, repeats 14–15) (from UniProt P11277 1-2137) (domain or fragment)”, the dissociation constant Kd (usually the concentration at which binding is half-saturated) in assay [1] is 1040 nM. In other words, the single-digit micromolar range.

B1: GST-ZZUDL1340P (ZZUD domain of erythrocyte ankyrin with the spherocytosis-related L1340P substitution) (domain or fragment)
chain: TGFLVSFMVDARGGSMRGSRHNGLRVVIPPRTCAAPTRITCRLVKPQKLSTPPPLAEEEGLASRIIALGPTGAQFLSPVIVEIPHFASHGRGDRELVVLRSENGSVWKEHRSRYGESYLDQILNGMDEELGSLEELEKKRVCRIITTDFPLYFVIMSRLCQDYDTIGPEGGSLKSKLVPLVQATFPENAVTKRVKLALQAQPVPDELVTKLLGNQATFSPIVTVEPRRRKFHRPIGLRIPLPPSWTDNPRDSGEGDTTSLRLLCSVIGGTDQAQWEDITGTTKLVYANECANFTTNVSARFWLSDCPRTAEAVNFATLLYKELTAVPYMAKFVIFAKMNDPREGRLRCYCMTDDKVDKTLEQHENFVEVARSRDIEVLEGMSLFAELSGNLVPVKKAAQQRSFHFQSFRENRLAMPVKVRDSSREPGGSPSFLRKAMKYEDTQHILCHLNITMPPCAKGSGAEDRRRTPTPLALRYSILSESTPGSLSGTEQAEMKMAVISEHLGLSWAELARELQFSVEDINRIRVENPNSLLEQSVALLNLWVIREGQNANMENLYTALQSIDRGEIVNMLEGSGRQSRN
B1: in assay [2], the fold decrease in the binding response compared to the WT turned out to be 3 fold.
